The source of these data is PMC10805794.

Test [1] deals with Beta spike antigen (Sanofi SARS-CoV-2 recombinant prefusion spike trimer, B.1.351 variant) (SARS-CoV-2 (B.1.351, Beta) | bacteriophage T4) (UniProt P0DTC2). Kind of test: SEC; Superose-6 column, analytical HPLC; antigens at 3 mg/mL stored at 4 °C for several weeks (cold stored) and an aliquot incubated at 37 °C for one day. Background: In gel filtration, larger molecules generally elute earlier.

Test [2] has as its target ancestral spike antigen (Sanofi SARS-CoV-2 recombinant prefusion spike trimer, Wuhan Hu-1) (SARS-CoV-2 (Wuhan Hu-1) | bacteriophage T4) (UniProt P0DTC2). The test is described as above.

In general, stoichiometry N refers to the number of molecules, sites or subunits per partner or assembly. Take “Beta spike antigen (Sanofi SARS-CoV-2 recombinant prefusion spike trimer, B.1.351 variant) (from UniProt P0DTC2 14-1213) (complex)”: the stoichiometry N in test [1] came out at 3. For “ancestral spike antigen (Sanofi SARS-CoV-2 recombinant prefusion spike trimer, Wuhan Hu-1) (from UniProt P0DTC2 14-1213) (complex)”, the stoichiometry N in test [2] is 3.
